From patent US20260174875A1 (Novo Nordisk A/S, priority 2023, published 2026)
Numbered stars: 1 amine (or outer) side, 2 acyl side, 3 side chain; on linkers, the order of the positions; unused ones are H or OH. Square brackets hold non-standard residues; d marks the D form. Side chains are listed from the residue outwards. * marks the point of attachment. C20 diacid = O=C(O)CCCCCCCCCCCCCCCCCCC(=O)*; C18 diacid = O=C(O)CCCCCCCCCCCCCCCCC(=O)*; γGlu = O=C(O)[C@H](CCC(=O)[*:2])N[*:1]; Chem. 29 = not defined here; AEEA = NCCOCCOCC(=O)O; Aib = CC(C)(N)C(=O)O

B1: Compound 94 (peptide)
peptide: Y[Aib]EGTFTSDYSILLEEQAAREFIEWLLAGGPSRGEASHLSTAQTQRLSAELHK([AEEA-AEEA-γGlu-C20 diacid])LATLPRTETGSGSP-NH2
B2: Compound 97 (peptide)
peptide: Y[Aib]EGTFTSDYSILLEEQAAREFIEWLLAGGPSSGAGQAPGASHLSTAQTQRLSAELHK([AEEA-AEEA-γGlu-C18 diacid])LATLPRTETGSGSP-NH2
B3: Compound 95 (peptide)
peptide: Y[Aib]EGTFTSDYSILLEEQAAREFIEWLLAGGPSGGGGEASHLSTAQTQRLSAELHK([AEEA-AEEA-γGlu-C18 diacid])LATLPRTETGSGSP-NH2
B4: Compound 91 (peptide)
peptide: H[Aib]HGTFTSDYSILLEEQAAREFIEWLLAGGPSSGAGQAPGQAPGASHLSTAQTQRLSAELHRLK([AEEA-AEEA-γGlu-C18 diacid])TLPRTETGSGSP-NH2
B5: Compound 96 (peptide)
peptide: Y[Aib]EGTFTSDYSILLEEQAAREFIEWLLAGGPSGGGGEASHLSTAQTQRLSAELHK([AEEA-AEEA-γGlu-C20 diacid])LATLPRTETGSGSP-NH2
B6: Compound 93 (peptide)
peptide: H[Aib]HGTFTSDYSILLEEQAAREFIEWLLAGGPSSGAGQAPGQAPLASHLSTAQTQRLSAELHK([AEEA-AEEA-γGlu-C18 diacid])LATLPRTETGSGSP-NH2
B7: Compound 10 (peptide)
peptide: Y[Aib]EGTFTSDYSILLEEQAAREFIEWLLAGGPSK(Chem. 29)GAPPPSGGGEASELSTAALGRLSAELHELATLPRTETGSGSP-NH2
modifications: reading uncertain
B8: Compound 92 (peptide)
peptide: H[Aib]HGTFTSDYSILLEEQAAREFIEWLLAGGPSSGAGQAPGQAPGASHLSTAQTQRLSAELHRLATLPK([AEEA-AEEA-γGlu-C18 diacid])TETGSGSP-NH2

target: T1, human GLP-1 receptor (human, UniProt P43220 24-463); experiment: cell-based or functional assay

Binder	hGLP-1R Potency, no HSA, EC50 [pM]
B1	16.1
B2	16.1
B3	17.9
B4	3.79
B5	16.8
B6	4.11
B7	13.8
B8	2.55

target: T2, human GIP receptor (human, UniProt P48546 22-466); experiment: cell-based or functional assay
T2 sequence (looked up): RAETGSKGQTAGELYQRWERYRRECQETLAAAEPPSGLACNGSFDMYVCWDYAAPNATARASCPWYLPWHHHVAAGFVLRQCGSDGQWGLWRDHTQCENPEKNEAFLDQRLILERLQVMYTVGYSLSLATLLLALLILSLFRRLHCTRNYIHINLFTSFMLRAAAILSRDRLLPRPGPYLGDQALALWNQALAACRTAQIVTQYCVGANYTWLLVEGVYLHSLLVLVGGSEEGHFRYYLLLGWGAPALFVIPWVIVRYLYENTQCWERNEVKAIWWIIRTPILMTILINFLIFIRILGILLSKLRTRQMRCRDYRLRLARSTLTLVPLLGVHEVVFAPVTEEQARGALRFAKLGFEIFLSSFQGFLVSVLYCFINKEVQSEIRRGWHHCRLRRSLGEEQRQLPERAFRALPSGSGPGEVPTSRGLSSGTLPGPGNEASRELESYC

Binder	hGIPR Potency, no HSA, EC50 [pM]
B1	2.9
B2	2.3
B3	3.13
B4	3.21
B5	3.62
B6	2.54
B7	2.11
B8	3.12

target: T3, human amylin-3(a) receptor (human, UniProt P30988 25-474; O60896 24-148); experiment: cell-based or functional assay
T3 sequence (looked up) 1: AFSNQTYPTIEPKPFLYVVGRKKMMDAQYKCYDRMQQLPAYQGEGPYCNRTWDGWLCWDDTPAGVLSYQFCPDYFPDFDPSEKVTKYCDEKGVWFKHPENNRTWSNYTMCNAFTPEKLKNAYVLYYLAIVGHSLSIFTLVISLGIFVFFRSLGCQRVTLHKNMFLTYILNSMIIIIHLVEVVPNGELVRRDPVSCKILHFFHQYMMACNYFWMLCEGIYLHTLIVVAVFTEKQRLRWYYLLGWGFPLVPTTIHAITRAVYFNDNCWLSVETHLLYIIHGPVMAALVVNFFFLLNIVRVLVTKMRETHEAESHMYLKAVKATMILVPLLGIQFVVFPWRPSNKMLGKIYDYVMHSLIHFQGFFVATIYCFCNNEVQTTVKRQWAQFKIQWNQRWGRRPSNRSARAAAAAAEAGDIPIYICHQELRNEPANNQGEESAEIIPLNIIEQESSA
T3 sequence (looked up) 2: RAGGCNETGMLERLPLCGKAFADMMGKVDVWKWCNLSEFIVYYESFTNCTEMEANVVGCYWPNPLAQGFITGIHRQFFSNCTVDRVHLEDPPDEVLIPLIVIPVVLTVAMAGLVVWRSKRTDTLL

Binder	hAMYR3 Potency, no HSA, EC50 [pM]
B1	3.91
B2	2.81
B3	3.76
B4	2.26
B5	3.73
B6	2.23
B7	6.8
B8	2.64

target: T1, human GLP-1 receptor; experiment: cell-based or functional assay; remark: another data set of the same source

Binder	hGLP-1R Potency, 1% HSA, EC50 [pM]
B1	130
B2	109
B3	146
B4	17.4
B5	162
B6	16.4
B7	246
B8	13.4

target: T2, human GIP receptor; experiment: cell-based or functional assay; remark: another data set of the same source

Binder	hGIPR Potency, 1% HSA, EC50 [pM]
B1	29.5
B2	8.38
B3	22.8
B4	9.31
B5	29.9
B6	8.58
B7	42.4
B8	8.53

target: T3, human amylin-3(a) receptor; experiment: cell-based or functional assay; remark: another data set of the same source

Binder	hAMYR3 Potency, 1% HSA, EC50 [pM]
B1	377
B2	132
B3	233
B4	28.8
B5	595
B6	66.4
B7	175
B8	75.1
